This note sets out measurements from patent US6936708, “Expression of Alfin 1 and methods for producing transgenic plants having increased root growth and root specific gene activation” (Arizona Board of Regents, acting for and on behalf of …).

To fix the notation:
T1: Alfin1 (Medicago sativa, UniProt Q40359 Q40359:1-257)
T1 sequence: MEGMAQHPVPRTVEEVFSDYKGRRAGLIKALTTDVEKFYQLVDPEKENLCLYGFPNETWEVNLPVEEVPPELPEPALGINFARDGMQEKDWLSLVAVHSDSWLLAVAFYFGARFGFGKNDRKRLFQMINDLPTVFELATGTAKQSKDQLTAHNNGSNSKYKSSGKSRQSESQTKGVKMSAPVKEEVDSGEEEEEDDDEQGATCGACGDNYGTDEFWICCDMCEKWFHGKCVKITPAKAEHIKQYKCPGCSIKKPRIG

B1: Alfin1 binding sequence SEQ 5 (dsDNA)
DNA 1: GACGCAAAGGGGGTGGGGACGGCGCTTTT
DNA 2: AAAAGCGCCGTCCCCACCCCCTTTGCGTC
B2: Alfin1 binding sequence SEQ 10 (dsDNA)
DNA 1: GACGAAGGAAGGACGGCAGCGTGTTGC
DNA 2: GCAACACGCTGCCGTCCTTCCTTCGTC
B3: Alfin1 binding sequence SEQ 8 (dsDNA)
DNA 1: GACGGCAGAAGGGAGAAACGTGGAGAATC
DNA 2: GATTCTCCACGTTTCTCCCTTCTGCCGTC
B4: Alfin1 binding sequence SEQ 4 (dsDNA)
DNA 1: GACGCAAAGGGGGTGGGGACGGCGCTTTT
DNA 2: AAAAGCGCCGTCCCCACCCCCTTTGCGTC
B5: Alfin1 binding sequence SEQ 7 (dsDNA)
DNA 1: GACGGGGATAGGTGAGGTGGAGGGACAAT
DNA 2: ATTGTCCCTCCACCTCACCTATCCCCGTC
B6: Alfin1 binding sequence SEQ 9 (dsDNA)
DNA 1: GACGGCGGGAAGGAGTGTGGTAGAGAGCC
DNA 2: GGCTCTCTACCACACTCCTTCCCGCCGTC
B7: Alfin1 binding sequence SEQ 6 (dsDNA)
DNA 1: GACGGGTAGGGTGTGGGGGGTGTTTTATT
DNA 2: AATAAAACACCCCCCACACCCTACCCGTC

The target in the first series is T1, Alfin1. Kind of series: DNA sequence that binds Alfin1 in vitro; listed identical to SEQ 4. The source says: (§1) To identify DNA sequences that are recognized by Alfin1 protein, the purified Alfin1 protein was used in the "random DNA binding" assay (See: Rauscher III F. J., Morris J. F., Tournay O. E., Cook D. M., Curran T. *Binding of the Wilm's tumor locus* zinc finger protein to the EGR-1 consensus sequence. Science, 1990; 250, 1259–1262) and the bound DNA purified by four rounds of PCR amplification and binding, followed by cloning of the isolated sequences.
For B1, the binding result is recorded as “binds”.

A further series addresses T1, Alfin1. The series is described as follows: DNA sequence that binds Alfin1 in vitro.
Source text: as §1
B2: the binding result is “binds”. The same measure, in the same setting: with B3 the entry was “binds”; with B4, “binds”; with B5, “binds”. Same read-out and setting: with B6 the entry was “binds”; with B7, “binds”.
